As a reminder, the Kd is a measure of binding affinity in units of concentration.

The target of one test is HLA-B*57:01. Put plainly: IEDB peptide-MHC binding, purified MHC/direct/fluorescence; filed as Kd, often an IC50 or EC50 that approximates it; ≥ and ≤ were set here for values at or beyond the usual limits of such assays.
The target in another test is HLA-B*46:01. Described as above.
The target of test [1] is HLA-B*40:01. The description is as above.
The target of another test is HLA-A*29:02. The test is described as above.
The target in another test is HLA-A*31:01. The description is as above.
The next test concerns the target HLA-A*69:01. Described as above.
The target in test [2] is HLA-A*02:01. Described as above.
A further test addresses HLA-A*11:01. The test is described as above.
The target in a further test is HLA-B*58:01. The test is described as above.
The target in the next test is HLA-A*03:01. Described as above.
For the next test, the target named is HLA-B*48:01. The description is as above.
Test [3] deals with HLA-B*18:01. Described as above.
In a further test the target is HLA-A*01:01. The test is described as above.
In test [4] the target is HLA-B*44:02. The description is as above.
The target in test [5] is HLA-B*15:01. The test is described as above.
A further test deals with HLA-B*40:02. Put plainly: IEDB peptide-MHC binding, purified MHC/competitive/radioactivity; filed as Kd, often an IC50 or EC50 that approximates it; ≥ and ≤ were set here for values at or beyond the usual limits of such assays.
In test [6] the target is HLA-B*40:01. Described as above.
For another test, the target named is HLA-B*44:03. The test is described as above.
In test [7] the target is HLA-B*18:01. The description is as above.
The target in test [8] is HLA-B*44:02. The test is described as above.
Another test addresses HLA-B*45:01. The test is described as above.
Test [9] addresses HLA-A*02:01. Kind of test: IEDB peptide-MHC binding, purified MHC/competitive/fluorescence; filed as Kd, often an IC50 or EC50 that approximates it; ≥ and ≤ were set here for values at or beyond the usual limits of such assays. Conditions: source organism: Salmonella enterica subsp. enterica serovar Typhi.
Test [10] has as its target HLA-B*15:01. Described as above. Conditions: source organism: Salmonella enterica subsp. enterica serovar Typhi.
For a further test, the target named is HLA-B*39:01. The description is as above. Conditions: source organism: West Nile virus.
The target in a further test is HLA-B*07:02. Put plainly: IEDB peptide-MHC binding, purified MHC/direct/fluorescence; filed as Kd, often an IC50 or EC50 that approximates it; ≥ and ≤ were set here for values at or beyond the usual limits of such assays. Conditions: source organism: West Nile virus.
The target in another test is HLA-B*27:05. The test is described as above. The note with it: source organism: West Nile virus.
Setting [11] is: source organism: Yellow fever virus 17D.
[12] abbreviates: source organism: SARS coronavirus Tor2.
The mark [13] stands for this setting: source organism: Mammarenavirus lassaense.
[14] abbreviates: source organism: Mammarenavirus choriomeningitidis.
Where [15] appears, read: source organism: Mammarenavirus brazilense.
Setting [16] is: source organism: Mammarenavirus machupoense.
Setting [17] is: source organism: West Nile virus.

CRTAFKPVL: the dissociation constant (Kd) with HLA-B*57:01 (setting [11]), with HLA-B*46:01 (setting [11]), in the test with HLA-B*40:01 [1] (setting [11]), in the test with HLA-A*29:02 (setting [11]), in the test with HLA-A*31:01 (setting [11]) and in the test with HLA-A*69:01 (setting [11]) was no less than 20 µM throughout. In addition, the dissociation constant Kd with HLA-A*02:01 [2] (setting [11]), with HLA-A*11:01 (setting [11]), in the test with HLA-B*58:01 (setting [11]), with HLA-A*03:01 (setting [11]), with HLA-B*48:01 (setting [11]) and in the test with HLA-B*18:01 [3] (setting [11]) was no less than 20 µM in each case. For the same sequence, the equilibrium dissociation constant (Kd) in the test with HLA-A*01:01 (setting [11]), in the test with HLA-B*44:02 [4] (setting [11]) and with HLA-B*15:01 [5] (setting [11]) was no less than 20 µM each time.
Sequence FEKAKIEVL returned a Kd with HLA-B*48:01 (source organism: Campylobacter jejuni subsp. jejuni 81-176) of no less than 20 µM.
On to GEVLSLDKL, for which the dissociation constant (Kd) with HLA-B*40:02 (setting [12]) was 0.0307 µM; with HLA-B*40:01 [6] (setting [12]) it was 0.0109 µM; with HLA-B*44:03 (setting [12]), 2.33 µM; with HLA-B*18:01 [7] (setting [12]) it was no less than 77.5 µM; with HLA-B*44:02 [8] (setting [12]) it was 7.88 µM; with HLA-B*45:01 (setting [12]), 17.3 µM.
In the case of KDPLITSGC, the Kd in the test with HLA-B*40:02 (setting [13]) is 4.5 µM; with HLA-B*40:01 [6] (setting [13]), 17.3 µM; in the test with HLA-B*44:03 (setting [13]) it was no less than 78.1 µM; in the test with HLA-B*18:01 [7] (setting [13]) it was no less than 77.5 µM; in the test with HLA-B*44:02 [8] (setting [13]) it was no less than 77.9 µM; in the test with HLA-B*45:01 (setting [13]), no less than 77.1 µM.
On to KEAYCQEFFL, for which the Kd in the test with HLA-B*40:02 (setting [13]) is 0.0153 µM; with HLA-B*40:01 [6] (setting [13]), 10.9 µM; with HLA-B*44:03 (setting [13]), 1.18 µM; with HLA-B*18:01 [7] (setting [13]), no less than 30.5 µM; in the test with HLA-B*44:02 [8] (setting [13]), 0.52 µM; with HLA-B*45:01 (setting [13]), 15.6 µM.
In the case of KEQLQLLMPL, the Kd with HLA-B*40:02 (setting [12]) was found to be 0.00523 µM; in the test with HLA-B*40:01 [6] (setting [12]) it was 0.157 µM; with HLA-B*44:03 (setting [12]) it was 0.0491 µM; with HLA-B*18:01 [7] (setting [12]), 0.184 µM; with HLA-B*44:02 [8] (setting [12]) it was 0.269 µM; in the test with HLA-B*45:01 (setting [12]), 0.121 µM.
In the case of KQRCALPSL, the equilibrium dissociation constant (Kd) with HLA-A*02:01 [9] came out at 0.796 µM; with HLA-B*15:01 [10], 0.246 µM.
On to LEGSISYSEL, for which the equilibrium dissociation constant (Kd) with HLA-B*40:02 (setting [12]) was 0.156 µM; with HLA-B*40:01 [6] (setting [12]), 0.0617 µM; with HLA-B*44:03 (setting [12]), 1.5 µM; with HLA-B*18:01 [7] (setting [12]) it was no less than 45 µM; in the test with HLA-B*44:02 [8] (setting [12]), 5.58 µM; in the test with HLA-B*45:01 (setting [12]) it was 2.21 µM.
For the sequence LEGSVRVVT, the dissociation constant (Kd) with HLA-B*40:02 (setting [12]) worked out at 0.0699 µM; with HLA-B*40:01 [6] (setting [12]) it was 0.795 µM; with HLA-B*44:03 (setting [12]), 0.986 µM; with HLA-B*18:01 [7] (setting [12]), 16.9 µM; with HLA-B*44:02 [8] (setting [12]), 0.951 µM; in the test with HLA-B*45:01 (setting [12]) it was 0.0591 µM.
In the case of LEGYAFEHIV, the Kd with HLA-B*40:02 (setting [12]) is 1.79 µM; with HLA-B*40:01 [6] (setting [12]), 17.4 µM; in the test with HLA-B*44:03 (setting [12]), no less than 28.4 µM; in the test with HLA-B*18:01 [7] (setting [12]) it was 1.12 µM; in the test with HLA-B*44:02 [8] (setting [12]), no less than 51.7 µM; with HLA-B*45:01 (setting [12]) it was 0.316 µM.
With LTDSDSPTY, the Kd worked out at 0.14 µM with HLA-A*29:02 (source organism: Mycobacterium tuberculosis str. Haarlem) and 0.025 µM in the test with HLA-A*01:01 (source organism: Mycobacterium tuberculosis).
Take MDLLLFSTS: the dissociation constant Kd in the test with HLA-B*40:02 (setting [14]) came to 0.265 µM; with HLA-B*40:01 [6] (setting [14]) it was 7.05 µM; with HLA-B*44:03 (setting [14]), 2.68 µM; with HLA-B*18:01 [7] (setting [14]) it was 4.09 µM; in the test with HLA-B*44:02 [8] (setting [14]) it was 6.84 µM; in the test with HLA-B*45:01 (setting [14]), 1.06 µM.
With NEYRQYLDA, the equilibrium dissociation constant (Kd) came out at 0.944 µM with HLA-B*40:02 (setting [12]); 1.76 µM with HLA-B*40:01 [6] (setting [12]); 10.9 µM in the test with HLA-B*44:03 (setting [12]); 2.38 µM with HLA-B*18:01 [7] (setting [12]); 12.4 µM in the test with HLA-B*44:02 [8] (setting [12]); 0.0988 µM with HLA-B*45:01 (setting [12]).
Turning to PDFNELFQL, the dissociation constant (Kd) in the test with HLA-B*40:02 (setting [15]) was 1.68 µM; with HLA-B*40:01 [6] (setting [15]) it was no less than 23.6 µM; with HLA-B*44:03 (setting [15]) it was no less than 22.9 µM; with HLA-B*18:01 [7] (setting [15]) it was no less than 77.5 µM; in the test with HLA-B*44:02 [8] (setting [15]), no less than 29 µM; with HLA-B*45:01 (setting [15]) it was no less than 77.7 µM.
Take PEIWLQLNT: the Kd in the test with HLA-B*40:02 (setting [16]) is 9.21 µM; with HLA-B*40:01 [6] (setting [16]), no less than 76.1 µM; with HLA-B*44:03 (setting [16]), 2.35 µM; with HLA-B*18:01 [7] (setting [16]), no less than 77.5 µM; with HLA-B*44:02 [8] (setting [16]), 14.4 µM; with HLA-B*45:01 (setting [16]), no less than 21.1 µM.
Turning to PEIWLQLNTL, the dissociation constant Kd was 0.109 µM with HLA-B*40:02 (setting [16]); 4.45 µM with HLA-B*40:01 [6] (setting [16]); 8.12 µM with HLA-B*44:03 (setting [16]); 19.7 µM with HLA-B*18:01 [7] (setting [16]); 10.2 µM in the test with HLA-B*44:02 [8] (setting [16]); 12.2 µM in the test with HLA-B*45:01 (setting [16]).
Turning to RECYVQRFYL, the equilibrium dissociation constant (Kd) in the test with HLA-B*40:02 (setting [16]) worked out at 0.0053 µM; with HLA-B*40:01 [6] (setting [16]), 9.01 µM; with HLA-B*44:03 (setting [16]), 1.1 µM; with HLA-B*18:01 [7] (setting [16]), 0.518 µM; with HLA-B*44:02 [8] (setting [16]), 1.64 µM; in the test with HLA-B*45:01 (setting [16]), 1.56 µM.
As to RKHGGMLVR, the dissociation constant (Kd) with HLA-B*48:01 (source organism: Dengue virus 1 Singapore/S275/1990) is no less than 20 µM.
For the sequence RRFLEPVGK, the dissociation constant Kd in the test with HLA-B*48:01 (setting [17]) was no less than 20 µM.
For the sequence SDNGILCPT, the equilibrium dissociation constant (Kd) with HLA-B*40:02 (setting [16]) is 1.33 µM; with HLA-B*40:01 [6] (setting [16]), no less than 68.2 µM; with HLA-B*44:03 (setting [16]), no less than 78.1 µM; with HLA-B*18:01 [7] (setting [16]) it was no less than 77.5 µM; with HLA-B*44:02 [8] (setting [16]), no less than 27.8 µM; with HLA-B*45:01 (setting [16]), no less than 77.7 µM.
Take SDRVVFVLWA: the Kd is 16.7 µM with HLA-B*40:02 (setting [12]); 14.7 µM with HLA-B*40:01 [6] (setting [12]); 0.736 µM in the test with HLA-B*44:03 (setting [12]); no less than 26.4 µM with HLA-B*18:01 [7] (setting [12]); 0.654 µM with HLA-B*44:02 [8] (setting [12]); 1.95 µM with HLA-B*45:01 (setting [12]).
Regarding VHREWFMDL, the Kd with HLA-B*39:01 was 1.48 µM; in the test with HLA-B*57:01 (setting [17]), no less than 20 µM; in the test with HLA-B*07:02 it was no less than 20 µM; with HLA-B*46:01 (setting [17]), no less than 20 µM; with HLA-B*40:01 [1] (setting [17]), no less than 20 µM; with HLA-A*31:01 (setting [17]) it was no less than 20 µM. In addition, the Kd with HLA-A*69:01 (setting [17]), with HLA-A*02:01 [2] (setting [17]), with HLA-A*11:01 (setting [17]), with HLA-B*27:05, with HLA-B*58:01 (setting [17]) and with HLA-A*03:01 (setting [17]) was no less than 20 µM in each case. Also, the Kd in the test with HLA-B*48:01 (setting [17]), with HLA-B*18:01 [3] (setting [17]), with HLA-A*01:01 (setting [17]), in the test with HLA-B*44:02 [4] (setting [17]) and in the test with HLA-B*15:01 [5] (setting [17]) was no less than 20 µM in each case.

These data come from the Immune Epitope Database (IEDB).
